Legend:
[1] = target: T1, peptide with N-terminal histidine; experiment: biolayer interferometry kinetics; reference: truncated wild-type HisRS fragment
T1 construct: also called peptides with N-terminal histidine residues

[2] = target: T1, peptide with N-terminal histidine; experiment: biolayer interferometry (Blitz), peptide-coated sensor, NAAB in 1x PBS, 1:1 fit, kd/ka
[3] = target: peptide with N-terminal valine; experiment: as above
[4] = target: peptide with N-terminal lysine; experiment: as above

B1: engineered HisNAAB (3-180) (designed binder)
chain: KNIQAIRGMNDYLPGETAIWQRIEGTLKNVLGSYGYSEIRLPIVEQTPLFKRAIGEVTDVVEKEMYTFEDRNGDSLTLRPEGTAGCVRAGIEHGLLYNQEQRLWYIGPMFGNAPQFHQLGCEVFGLQGPDIDAELIMLTARWWRALGISEHVTLELNSIGSLEARANYRDA
fold improvement in binding affinity against the wild-type fragment [1]: ~10 fold | Kd [2]: 98700 nM

B2: ValNAAB (enzyme)
chain: MEKTYNPQDIEQPLYEHWEKQGYFKPNGDESQESFCIMIPPPNVTGSLHMGHAFQQTIMDTMIRYQRMQGKNTLWQVGTDHAGIATQMVVERKIAAEEGKTRHDYGREAFIDKIWEWKAESGGTITRQMRRLGNSVDWERERFTMDEGLSNAVKEVFVRLYKEDLIYRGKRLVNWDPKLRTAISDLEVENRESKGSMWHIRYPLADGAKTADGKDYLVVATTRPETLLGDTGVAVNPEDPRYKDLIGKYVILPLVNRRIPIVGDEHADMEKGTGCVKITPAHDFNDYEVGKRHALPMINILTFDGDIRESAQVFDTKGNESDVYSSEIPAEFQKLERFAARKAVVAAIDALGLLEEIKPHDLTVPYGDRGGVVIEPMLTDQWYVRADVLAKPAVEAVENGDIQFVPKQYENMYFSWMRDIQDWCISRQLWWGHRIPAWYDEAGNVYVGRNEEEVRKENNLGADVALRQDEDVLDTWFSSALWTFSTLGWPENTDALRQFHPTSVMVSGFDIIFFWIARMIMMTMHFIKDENGKPQVPFHTVYMTGLIRDDEGQKMSKSKGNVIDPLDMVDGISLPELLEKRTGNMMQPQLADKIRKRTEKQFPNGIEPHGTDALRFTLAALASTGRDINWDMKRLEGYRNFCNKLWNASRFVLMNTEGQDCGFNGGEMTLSLADRWILAEFNQTIKAYREALDSFRFDIAAGILYEFTWNQFCDWYLELTKPVMNGGTEAELRGTRHTLVTVLEGLLRLAHPIIPFITETIWQ
notes: Purified on GSTrap; also called Valine
Kd [3]: 1220 nM

B3: LysNAAB (enzyme)
chain: ANDKSRQTFVVRSKILAAIRQFMVARGFMEVETPMMQVIPGGASARPFITHHNALDLDMYLRIAPELYLKRLVVGGFERVFEINRNFRNEGISVRHNPEFTMMELYMAYADYHDLIELTESLFRTLAQEVLGTTKVTYGEHVFDFGKPFEKLTMREAIKKYRPETDMADLDNFDAAKALAESIGITVEKSWGLGRIVTEIFDEVAEAHLIQPTFITEYPAEVSPLARRNDVNPEITDRFEFFIGGREIGNGFSELNDAEDQAERFQEQVNAKAAGDDEAMFYDEDYVTALEYGLPPTAGLGIGIDRMIMLFTNSHTIRDVILFPAMRP
notes: Purified on GSTrap; also called Lysine
Kd [4]: 2610 nM
